In US20190169308A1 (ALLIGATOR BIOSCIENCE, published 2019):

T1: human 5T4 on transfected cells (human, UniProt Q13641 32-420)
T1 construct: whole, on cells; also called B16-5T4; CHOh5T4
T1 sequence (looked up): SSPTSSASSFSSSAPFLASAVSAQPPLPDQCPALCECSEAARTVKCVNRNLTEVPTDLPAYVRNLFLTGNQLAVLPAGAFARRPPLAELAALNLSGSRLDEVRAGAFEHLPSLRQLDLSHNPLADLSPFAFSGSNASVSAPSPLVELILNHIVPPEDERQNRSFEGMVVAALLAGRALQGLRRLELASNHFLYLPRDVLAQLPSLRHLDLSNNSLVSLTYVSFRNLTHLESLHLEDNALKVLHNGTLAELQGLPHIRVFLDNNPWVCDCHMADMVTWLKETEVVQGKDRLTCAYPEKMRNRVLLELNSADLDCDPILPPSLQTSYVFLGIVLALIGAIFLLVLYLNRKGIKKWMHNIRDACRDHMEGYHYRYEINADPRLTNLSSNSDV

T2: cynomolgus 5T4 on transfected CHO cells (Macaca mulatta (cynomolgus), UniProt F7CT46 35-420)
T2 construct: also called cyno5T4; cy5T4
T2 sequence: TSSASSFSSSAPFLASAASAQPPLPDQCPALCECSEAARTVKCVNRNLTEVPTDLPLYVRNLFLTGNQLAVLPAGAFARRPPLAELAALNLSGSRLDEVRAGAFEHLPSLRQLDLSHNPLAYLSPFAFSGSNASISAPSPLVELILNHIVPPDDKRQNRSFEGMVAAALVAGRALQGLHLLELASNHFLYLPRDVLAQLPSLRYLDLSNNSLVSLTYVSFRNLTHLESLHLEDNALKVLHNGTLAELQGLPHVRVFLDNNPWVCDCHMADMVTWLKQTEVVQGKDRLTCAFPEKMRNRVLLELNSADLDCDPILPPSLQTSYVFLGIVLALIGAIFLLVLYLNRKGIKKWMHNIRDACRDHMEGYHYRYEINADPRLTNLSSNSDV

T3: 5T4-Fc (human, UniProt Q13641 32-355, limits assumed)
T3 construct: obtained from Peter L. Stern, University of Manchester; also called h5T4-Fc; recombinant 5T4
T3 sequence (looked up): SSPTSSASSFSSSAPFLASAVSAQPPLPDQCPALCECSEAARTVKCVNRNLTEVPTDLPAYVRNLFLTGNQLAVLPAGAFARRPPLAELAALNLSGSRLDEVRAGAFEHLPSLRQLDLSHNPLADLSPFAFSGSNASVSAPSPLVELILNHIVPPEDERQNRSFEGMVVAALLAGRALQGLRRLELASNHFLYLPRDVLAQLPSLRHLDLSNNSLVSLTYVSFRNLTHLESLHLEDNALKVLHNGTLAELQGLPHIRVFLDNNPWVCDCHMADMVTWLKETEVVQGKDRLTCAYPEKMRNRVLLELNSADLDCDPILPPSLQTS

T4: 5T4 (SPR antigen) (UniProt Q13641 32-355, limits assumed, biotinylated on the MASS-1 platform)
T4 construct: also called biotinylated 5T4
T4 sequence (looked up): T3 sequence (looked up)

T5: mouse 5T4 on transfected cells (mouse, UniProt Q9Z0L0 32-426)
T5 construct: whole, on cells; also called murine 5T4
T5 sequence (looked up): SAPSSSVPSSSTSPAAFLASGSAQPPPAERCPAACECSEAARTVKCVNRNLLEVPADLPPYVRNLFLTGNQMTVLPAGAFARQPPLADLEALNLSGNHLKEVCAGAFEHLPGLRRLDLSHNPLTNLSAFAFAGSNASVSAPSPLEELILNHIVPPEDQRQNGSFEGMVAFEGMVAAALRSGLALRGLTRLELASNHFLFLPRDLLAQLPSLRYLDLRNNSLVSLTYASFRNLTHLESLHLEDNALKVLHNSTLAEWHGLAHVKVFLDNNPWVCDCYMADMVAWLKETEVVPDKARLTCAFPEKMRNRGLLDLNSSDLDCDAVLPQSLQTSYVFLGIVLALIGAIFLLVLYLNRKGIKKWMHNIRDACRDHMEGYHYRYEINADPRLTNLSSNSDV

B1: 1212/1213 (antibody, V domains shown)
VH: EVQLLESGGGLVQPGGSLRLSCAASGFTFSSYAMSWVRQAPGKGLEWVSYISSYGGYTSYADSVKGRFTISRDNSKNTLYLQMNSLRAEDTAVYYCARYHSGVLDYWGQGTLVTVSS
VL: DIQMTQSPSSLSASVGDRVTITCRASQSISSYLNWYQQKPGKAPKLLIYAASSLQSGVPSRFSGSGSGTDFTLTISSLQPEDFATYYCQQYYYHYLLTFGQGTKLEIK
B2: 1626-1208 (bispecific antibody)
heavy: not shown
light: DIQMTQSPSSLSASVGDRVTITCRASQSISSYLNWYQQKPGKAPKLLIYAASSLQSGVPSRFSGSGSGTDFTLTISSLQPEDFATYYCQQGTGYGPLTFGQGTKLEIKRTVAAPSVFIFPPSDEQLKSGTASVVCLLNNFYPREAKVQWKVDNALQSGNSQESVTEQDSKDSTYSLSSTLTLSKADYEKHKVYACEVTHQGLSSPVTKSFNRGEC
notes: Morrison format IgG-scFv
B3: 1626-1210 (bispecific antibody)
heavy: not shown
light: B2 light
notes: Morrison format IgG-scFv

Columns and labels:
[1] = target: T1, human 5T4 on transfected cells; experiment: flow cytometry, 5T4-transfected B16 cells
[2] = target: T6, human/mouse 5T4 chimera E2; experiment: flow cytometry, cells with human/mouse 5T4 chimera
T6 construct: on transfected CHO cells
Protocol: (§1) Epitope mapping was performed by investigation of loss of binding by the antibodies using a panel of human/mouse chimeric 5T4 constructs by flow cytometry. […] Two strategies were used for the epitope mapping as illustrated in FIG. 5. In one approach, seven human/mouse 5T4 chimeras were constructed based on dividing 5T4 into seven different domains (FIG. 5). By replacing each domain with the corresponding mouse sequence seven human/mouse 7 5T4 human/mouse chimeras were generated. The chimeras were generated using the human protein 5T4 sequence NP_006661.1 (reference mRNA sequence NM_006670.4) and the corresponding mouse sequence NP_035757.2 (reference mRNA sequence NM_011627.4). The human/mouse chimeric DNA constructs, as well as human and mouse wild-type 5T4, were cloned into pcDNA3.1 expression vectors. […] As controls human 5T4 and mouse 5T4-transfected cells were used. For flow cytometric analysis, cells were stained with different 5T4 antibodies diluted in FACS buffer (PBS, 0.5% BSA). […] Samples were analysed by FACSverse (BD Biosciences, Heidelberg, Germany) and % positive cells were determined. To compensate for variations in % 5T4 positive cells in the various transfected populations, binding levels were normalized within each chimera by dividing % positive cells for each clone with % positive cells for the clones resulting in the highest % positive cells (% pos cellscloneX/% positive cellsₘₐₓ). A normalized value ≤0.75 was defined as mAb binding being dependent on the replaced region, whereas a normalized value ≤0.25 was defined as complete dependence.

[3] = target: T7, human/mouse 5T4 chimera E3; experiment: flow cytometry, cells with human/mouse 5T4 chimera
T7 construct: on transfected CHO cells
Protocol: as §1

[4] = target: T8, human/mouse 5T4 chimera E7; experiment: flow cytometry, cells with human/mouse 5T4 chimera
T8 construct: on transfected CHO cells
Protocol: as §1

[5] = target: T9, human/mouse 5T4 chimera E5; experiment: flow cytometry, cells with human/mouse 5T4 chimera
T9 construct: on transfected CHO cells
Protocol: as §1

[6] = target: T10, human/mouse 5T4 chimera E1; experiment: flow cytometry, cells with human/mouse 5T4 chimera
T10 construct: on transfected CHO cells
Protocol: as §1

[7] = target: T11, human/mouse 5T4 chimera E6; experiment: flow cytometry, cells with human/mouse 5T4 chimera
T11 construct: on transfected CHO cells
Protocol: as §1

[8] = target: T12, human/mouse 5T4 chimera E4; experiment: flow cytometry, cells with human/mouse 5T4 chimera
T12 construct: on transfected CHO cells
Protocol: as §1

[9] = target: T2, cynomolgus 5T4 on transfected CHO cells; experiment: flow cytometry, cynomolgus 5T4-transfected CHO cells
Protocol: (§2) The potency of 5T4 antibodies in binding to cynomolgus 5T4 was determined by flow cytometry. CHO cells were stably transfected with […] (cynomolgus) 5T4. […] Samples were analysed either on a FACSCalibur or a FACSverse (BD Biosciences, Heidelberg, Germany) and mean fluorescence intensity (MFI) determined. […] To compare the EC50 values between human and cynomolgus 5T4, the cy5T4/hu5T4 ratio was calculated from the experiment with the full dose-response.

[10] = target: T3, 5T4-Fc; experiment: ELISA, coated 5T4-Fc
Protocol: ELISA was performed using a standard protocol. Plates (#655074, Greiner Bio-One GmbH, Germany) were pre-coated with 0.5 μg/ml 5T4-Fc (obtained from Peter L. Stern, University of Manchester) overnight. 5T4 antibodies were diluted from 6 to 1.5×10⁻³ μg/ml in 1:4 dilutions and added in duplicates of 50 μl to each well. Binding was detected with rabbit anti-h kappa L-chain-HRP (P0129, Dako Denmark) and the ELISA was developed with SuperSignal ELISA PICO Chemiluminescent substrate (Thermo Scientific Pierce, Rockford, Ill. USA) for 2-10 minutes and read in an automated microplate based multi-detection reader (FLUOstar OPTIMA, Netherlands).

[11] = target: T4, 5T4 (SPR antigen); experiment: SPR Biacore 3000, amine-coupled 5T4, mAb injected (bivalent)
Protocol: Binding kinetics of the 5T4-specific mAbs have been studied using two different SPR-based platforms, the Biacore 3000 (GE Healthcare) and the MASS-1 platform (Sierra Sensors). Briefly, 5T4 was captured at the sensor chip surface either via direct amine coupling (Biacore platform) or using a streptavidin coated chip and biotinylated 5T4 (MASS-1 platform). The different 5T4-specific mAbs were then injected over the chip in increasing concentrations and the association and dissociation rates studied in real time. A 1:1 Langmuir model was used for curve fitting.

[12] = target: T5, mouse 5T4 on transfected cells; experiment: flow cytometry, mouse 5T4-transfected cells
[13] = target: T2, cynomolgus 5T4 on transfected CHO cells; experiment: flow cytometry, 5T4-transfected CHO cells
Protocol: as §2

[14] = target: T3, 5T4-Fc; experiment: dual ELISA: coated 5T4-Fc, detection with CD137-bio
Protocol: Bispecific binding to both targets, CD137 and 5T4, was evaluated using a standard ELISA protocol. Plates (#655074, Greiner Bio-One GmbH, Germany) were pre-coated with 0.5 μg/ml 5T4-Fc (obtained from Professor Peter Stern, University of Manchester) overnight. CD137-5T4 bsAb were diluted from 8 to 2×10⁻³ μg/ml in 1:4 dilutions and added in duplicates of 50 μl to each well. CD137-bio (Ancell #502-030) was used as detection antibody at 0.5 μg/ml and the binding was detected with Streptavidin-HRP (Pierce #21126). The ELISA was developed with SuperSignal ELISA PICO Chemiluminescent substrate (Thermo Scientific Pierce, Rockford, Ill. USA) during 2-10 minutes and read in an automated microplate based multi-detection reader (FLUOstar OPTIMA, Netherlands).

EC50 [1] [nM]	normalized % positive cells [2]	normalized % positive cells [3]	normalized % positive cells [4]	normalized % positive cells [5]	normalized % positive cells [6]	normalized % positive cells [7]	normalized % positive cells [8]	EC50 [9] [nM]	EC50 [10] [nM]	kon [11] [M⁻¹ s⁻¹]	binding result [12]	Ratio EC50cyno5T4/h5T4 [13]	EC50 [14] [nM]	Binder
1.4	0.9	0.93	0.88	0.84	0.89	0.03	1	30.7	0.56	450000	no binding	140	–	B1
–	–	–	–	–	–	–	–	–	–	–	–	–	1.91	B2
–	–	–	–	–	–	–	–	–	–	–	–	–	0.4	B3
